Measurements: article PMC6332122, “Identification of RNA Oligonucleotides Binding to Several Proteins from Potential G-Quadruplex Forming Regions in Transcribed Pre-mRNA”
Positions count from the first letter of the chain named.

B1: VEGFA intronic G4_1 (structured_RNA)
RNA: GGGGGCGGGAGCCAGAGACCAGUGGGCAGGG
B2: VEGFA intronic G4_1 mutant (structured_RNA)
RNA: B1 RNA with G2U, G3U, G4U
B3: PDGFA intronic G4_1 (structured_RNA)
RNA: GGGGAAGGGGAGCUGGGGCGCAGCGGG
B4: VEGFA 5' UTR G4 (structured_RNA)
RNA: GGAGGAGGGGGAGGAGGA
B5: PDGFA intronic G4_2 (structured_RNA)
RNA: GGGGUGCGGGGAGCGGGGAAGGG
B6: VEGFA intronic G4_2 mutant (ssRNA)
RNA: UUUUUCAGGGCGCAGGAGGGAGAUUUUU
B7: VEGFA intronic G4_2 (structured_RNA)
RNA: GGGGGCAGGGCGCAGGAGGGAGAGGGGG
B8: PDGFB intronic G4_1 (structured_RNA)
RNA: GGGCGCGGGGUUUGGGGUGGG
B9: PDGFB intronic G4_3 (structured_RNA)
RNA: GGGUUUGGUUGGGCACAGGGCACGGG
B10: PDGFB intronic G4_2 (structured_RNA)
RNA: GGGCACUCGGGUAGGGGGAGGACUAGGG
B11: VEGFA 5' UTR G4 mutant (ssRNA)
RNA: GGAUUAGUGUGAGGAGGA

Legend:
[1] = target: alpha-Thrombin (human, UniProt P00734;P00734 328-363;364-622); assay: SPR; SPR: PBS (137 mM NaCl, 2.7 mM KCl, 8 mM Na2HPO4, 2 mM KH2PO4) pH 7.4, 25 °C, protein on CM5; EMSA: 50 mM Tris-HCl, 100 mM KCl, pH 7.5, room temperature, 1 uM RN
[2] = target: T1, VEGF165 (UniProt P15692-4 27-191); assay: SPR; SPR: PBS (137 mM NaCl, 2.7 mM KCl, 8 mM Na2HPO4, 2 mM KH2PO4) pH 7.4, 25 °C, protein on CM5; EMSA: 50 mM Tris-HCl, 100 mM KCl, pH 7.5, room temperature, 1 uM RNA, 15% PAGE in TBE; settings: protein: commercial, parallel G4
[3] = target: PDGF-AA (UniProt P04085 87-211); assay: as above; settings: protein: commercial, chain copies: 2, parallel G4
[4] = target: PDGF-BB (UniProt P01127 82-190); assay: as above; settings: protein: commercial, chain copies: 2, parallel G4
[5] = target: T1, VEGF165; assay: SPR; up to 1000 nM RNA; SPR: PBS (137 mM NaCl, 2.7 mM KCl, 8 mM Na2HPO4, 2 mM KH2PO4) pH 7.4, 25 °C, protein on CM5; EMSA: 50 mM Tris-HCl, 100 mM KCl, pH 7.5, room temperature, 1 uM RNA, 15% PAGE in TBE; settings: protein: commercial
[6] = label: 5' fluorescein for EMSA, none for SPR

PDGF-BB, sequence (P01127 82-190): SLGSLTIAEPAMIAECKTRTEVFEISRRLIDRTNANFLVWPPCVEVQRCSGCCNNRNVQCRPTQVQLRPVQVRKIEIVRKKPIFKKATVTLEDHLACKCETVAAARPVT
T1 sequence (P15692 other isoform, or with tags, fused parts or gaps): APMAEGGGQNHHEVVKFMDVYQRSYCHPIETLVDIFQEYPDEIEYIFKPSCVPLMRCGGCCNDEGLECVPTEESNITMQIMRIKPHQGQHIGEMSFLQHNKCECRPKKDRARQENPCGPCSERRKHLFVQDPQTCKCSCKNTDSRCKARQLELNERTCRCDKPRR

Binder | Kd [2] | Kd [3] | Kd [4] | also measured
B1 |  |  |  | binding result [1]: no binding; Kd [2, 6]: 140 nM; Kd [3, 6]: 20 nM; Kd [4, 6]: 40 nM
B2 |  |  |  | binding result ([5]; label: 5' fluorescein for EMSA, none for SPR, unexpected parallel G4 by CD): no binding
B3 | 490 nM | 30 nM | 30 nM | 
B4 | 300 nM | 60 nM | 110 nM | binding result [1]: no binding
B5 | 200 nM | 30 nM | 30 nM | 
B6 |  |  |  | binding result ([5]; no parallel G4 by CD): no binding
B7 | 31 nM | 20 nM | 30 nM | binding result [1]: no binding
B8 | 130 nM | 30 nM | 40 nM | 
B9 | 440 nM | 40 nM | 60 nM | 
B10 | 150 nM | 20 nM | 30 nM | 
B11 |  |  |  | binding result ([5]; no parallel G4 by CD): no binding
